Results taken from the RNAGym collection of RNA variant scans (doi:10.1073/pnas.2313332121).

B1: TPR t1 (parent)
chain: GACCAAUCUGCCCUCAGAGCUCGAGAACAUCUUCGGAUGCAGAGGAGGCAGGCUUCGGUGGCGCGAUAGCGCCAACGUCCUCAACCUCCAAUGCAUCCCACCACAUGAUGAUGCCUGAAGAGCCUUGGUUUUUUG

Variants of: B1
Experiment: polymerase ribozyme fitness, log enrichment relative to wild type (log ratio); higher = more active; in vitro selection for triplet polymerase activity
Procedure, shortened: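 For each subunit of a heterodimeric triplet polymerase ribozyme, a mutant library was built by PCR and transcribed, then taken through a single in vitro selection round in triplicate. Selection involved annealing to a biotinylated primer, the partner subunit and triplets, incubation frozen at −7 °C, gel excision of extended constructs, capture on streptavidin beads and RT-PCR. Genotypes were retained after Illumina sequencing of inputs and outputs only with ≥10 input reads and ≥1 read in each output. Fitness is defined as the logarithm of a genotype's enrichment relative to wild-type enrichment, using inverse-variance-weighted averages across replicates, with the logarithm taken to base 2.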

| Variant | polymerase ribozyme fitness (log ratio) |
| --- | --- |
| GACCAAUCUGCCCCCAGAGCUCGAGAACAUCUUCGGAUGCAUAAGAGGCAGGCUUCGGUGUCGCGAUAGCGCCAACGUCCUCAACCUCCAAUGCAUCCCACCACAUGAUGAUGCCUGAAGAGCCUUGGUUUUUUG [U14C G42U G44A G61U] | -2.82 |
| GACCAAUCUGCCCCCAGAGCUCGAGAACAUCUUCGGAUGCAGAGGAGGCAGGCUUCGGUGGCGCGAUAGCGCCAGCGUCCUCAACCUCCAAUGCAUCCCACCACAUGAUGAUGCCUGAAGAGCCUUGGUUUUUUG [U14C A75G] | -1.81 |
| GACCAAUCUGCCCACAGAGCUCGAGAACAUCUUCGGAUGCAGAGGAGGCAGGCUUCAGUGACGCGAUAGCGCCAACGUCCUCAACCUCCGAUGCAUCCCACCACAUGAUGAUGCCUGAAGAGCAUUGGUUUUUUG [U14A G57A G61A A90G C124A] | 1.08 |
| GACCAAUCUGCCCCCAGAGCUCGAGAACAUCUUCGGAUGCAGAGGAGGCAGGCUUCGGUCGCGAGAUAGCGCCAACGUCCUCAACCUCCAAUGCAUCCCACCACAUGAGGAUGCCUGAAGAGCCUUGGUUUUUUG [U14C G60C C64A U109G] | -6.09 |
| GACCAAUCUGCCCACAGAGCUCGAGAACAUCUUCGGAUGCAGAGGAGGCAGGCUUCGGUGGCGCGAUAGCGCCAACGUCCUCAACCUCCAAUGCAUCCCACCACAUGAUGAUGCCUGAAAAGCCUUGGUUUUUUG [U14A G120A] | -0.235 |
| GACCAAUCUGCCCGCAGAGCUCGAGAACAUCUUCGGAUGCAGAGGGGGCAGGCUUCGGUGGCGCGAUAGCCCCAACGUCCUCAACCUCCAAUGCAUCCCACCACAUGAUGAUGCCUGAAAAGCCUUGGUUUUUUG [U14G A46G G71C G120A] | -0.69 |
| GACCAAUCUGCCCACAGAGCUCGAGAACAUCCUCGGAUGCAGAGGAGGCAGGCUUCGGUGGCGCGAUAGCGCCAACGUCCUCAACCACCAAUGCAUCCCAACACAUGAUGAUGCCUGAAGAGCCUUGGUUUUUUG [U14A U32C U87A C101A] | -3.54 |
| GACCAAUCUGCCCACAGAGCUCGAGAACAUCUUCGGAUGCAGAGGAGGCAGCCUUCGGUGGCGCGAUAGCGCCAACGUCCUCAACCUCCAAUGCAUCCCACUACACGAUGAUGCCUGAAGAGCGUUGGUUUUUUG [U14A G52C C102U U106C C124G] | -1.75 |
| GACCAAUCUGCCCCCAGAGCUCGAGAACAUCUCCGGAUGCAGAGGAGGCAGGCUUCGGUGGCGCGAUAGCGCCAACGUCCUCAACCUCCAAUGCAUCCCACCACAUGAUGAUGCCUGAAGAGCCUUGGUUUUUUG [U14C U33C] | -5.43 |
| GACCAAUCUGCCCCCAGAGCUCGAGAACAUCUUCGGAUGCAGAGAAGGCAGGCUUCGGUGGCGCGAUAGCGCCAACGUCCUCAACCUCCAAUGCAUCCCACCACAUGAUGAUGCCUGAAGAACCUUGGUUUUUUG [U14C G45A G122A] | -3.73 |
| GACCAAUCUGCCCGCAGAGCUCGAGAACAUCUUCGGGUGCAAAGGAGGCAGGCUUCGGUGGCGCGAUAGCGCCAACAUCCUCAACCUCCAAUGCAUCCCACCACAUGAUGAUGCCUGAAGAGCCUUGGUUUUUUG [U14G A37G G42A G77A] | -4.88 |
| GACCAAUCUGCCCGCAGAGGUCGAGAACAUCUUCGGAUGCAGAUGAGGCAGGCUUCGGUGGCGCGAUAGCGCCAACGUCCUCAACCUCCAAUGCAUCCCACCACAUGAUGAUGCCUCAAGAGCCUUGGUUUUUUG [U14G C20G G44U G117C] | -6.5 |
| GACCAAUCUGCCCGCAGAGUUGCAGAACAUCUCCGGAGGCAGAGGAGGCAGGCUUCGGUGGUGCGAUAGCGCCAACGUCCUCAACCUCCAAUGCAUCCCACCACAUGAUGACGCCUGGAGAGCCUUAGUUUUUUG [U14G C20U C22G G23C U33C U38G C62U U112C A118G G127A] | -6.3 |
| GACCAAUCUGCCCCCAGAGAUCGAGAACAUCUUCGGAUGCAGAGGAGGCAGGCUUCGGUGGCGCGAUAGCGCCAACGUCCUCAACCUCCAAUGCAUCCCACCACAUGAUGAUGUCUGAAGAGCCUUGUUUUUUUG [U14C C20A C114U G128U] | -5.92 |
| GACCAAUCUGCCCACAGAGCGCGAGAACAUCUUCGGAUGCAGAGGAGGCAGGCUUCGGUGGCGCGAUAGCGCCAACGUCCUCAACCUCCAAUGCAUCCCACCACAUGAUGAUGCCUGAAUAGCUUUGGUUUUUUG [U14A U21G G120U C124U] | -0.621 |
| GACCAAUCUGCCCGCAGAGCUCGAGAACAUCUUCGGAUGCCGAGGAGGCAGGCUUCGGUGGCGCGAUAGCGCCUACGUCCUCACCCUCCAAUGCAUCCCACCACAUGAUGAUGCCUGAAGAGCCUUGGUUUUUUG [U14G A41C A74U A84C] | -3.77 |
| GACCAAUCUGCCCCCAGAGCUCGAGAACAUCUUCGGAUGCAGGGGAGGCAGGCUUCGGUGGCGCGAUAGCGCCAACGUCCUCAACCUCCAAUGCAUCCCACCACAUGAUGAUGCCUGAAGAGCCUUGGUUUUUUG [U14C A43G] | -3.2 |
| GACCAAUCUGCCCACAGAGCUCGAGAACAUCUUCGGAUGCAGAGGAGGCAGGCUUCGGUGGCGCGAUAGCGCCAACGUCCUCAACCUCCAAUGCAUCCCACCACAUGAUGAUGCCAGAAGGGCCUUGGUUUUUUG [U14A U116A A121G] | 0.0546 |
| GACCAAUCUGCCCACAGAGCUCGAGAACAUCUUCGGAUGCAGAGGAGGCAGGCUUCGGUGGCCCGAUAGCGCCAACGUCCUCAACCUCCAAUGCAUCCCACCACAUGAUGAUGCCUGAAGAGCCUUGGUUUUUUG [U14A G63C] | -2.57 |
| GACCAAUCUGCCCGAAGAGCUCGAGAACAUCUUCGGAUGCAGAGGAGGCAGGCUUCGGUGGCGCGAUAGCGCCAACGUCCUCAACCUCCAAUGCAUCCCACCACAUGAUGAUGCCUGAAGAGCCUUGGUUUUUUG [U14G C15A] | -3.45 |
| GACCAAUCUGCCCCCAGAGCUCGAGAACAUCUUCGGAUGCAGAGGUGGCAGGCUUCGGUGGUGCGAUAGCGCCAACGUCCUCAACCUCCAAUGCAUCCCACCACAUGAUGAUGCCUGAAGAGCCAUGGUUUUUUG [U14C A46U C62U U125A] | -3.37 |
